Results published in US20250000946A1.

Biological target: Human IL-2Rα/β/γ complex (high affinity IL-2 receptor) (human) (UniProt P01589)
Assay: cell-based or functional assay

Chain of Human IL-2Rα/β/γ complex (high affinity IL-2 receptor) (human) (P01589 22-272, chain 1 of 3): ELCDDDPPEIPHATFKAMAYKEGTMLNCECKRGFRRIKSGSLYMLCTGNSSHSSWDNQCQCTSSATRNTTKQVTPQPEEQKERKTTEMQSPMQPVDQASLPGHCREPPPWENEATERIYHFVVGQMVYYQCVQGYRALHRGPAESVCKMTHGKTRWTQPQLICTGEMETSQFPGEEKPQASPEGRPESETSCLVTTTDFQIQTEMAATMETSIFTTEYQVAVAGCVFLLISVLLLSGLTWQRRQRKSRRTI
Chain of Human IL-2Rα/β/γ complex (high affinity IL-2 receptor) (human) (P14784 27-551, chain 2 of 3, further chain): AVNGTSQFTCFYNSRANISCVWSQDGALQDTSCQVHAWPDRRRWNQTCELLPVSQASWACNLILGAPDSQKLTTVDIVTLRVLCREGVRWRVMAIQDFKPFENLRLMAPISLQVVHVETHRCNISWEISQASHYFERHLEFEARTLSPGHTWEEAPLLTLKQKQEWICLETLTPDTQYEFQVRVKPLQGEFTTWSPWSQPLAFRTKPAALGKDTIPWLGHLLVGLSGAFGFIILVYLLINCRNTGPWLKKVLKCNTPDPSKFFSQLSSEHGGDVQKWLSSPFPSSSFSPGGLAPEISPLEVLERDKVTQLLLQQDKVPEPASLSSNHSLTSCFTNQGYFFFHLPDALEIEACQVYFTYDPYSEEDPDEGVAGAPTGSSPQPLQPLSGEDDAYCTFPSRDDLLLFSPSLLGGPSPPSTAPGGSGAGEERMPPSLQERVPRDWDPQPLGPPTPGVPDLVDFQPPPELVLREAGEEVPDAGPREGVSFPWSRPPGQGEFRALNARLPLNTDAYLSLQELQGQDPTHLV
Chain of Human IL-2Rα/β/γ complex (high affinity IL-2 receptor) (human) (P31785 23-369, chain 3 of 3, further chain): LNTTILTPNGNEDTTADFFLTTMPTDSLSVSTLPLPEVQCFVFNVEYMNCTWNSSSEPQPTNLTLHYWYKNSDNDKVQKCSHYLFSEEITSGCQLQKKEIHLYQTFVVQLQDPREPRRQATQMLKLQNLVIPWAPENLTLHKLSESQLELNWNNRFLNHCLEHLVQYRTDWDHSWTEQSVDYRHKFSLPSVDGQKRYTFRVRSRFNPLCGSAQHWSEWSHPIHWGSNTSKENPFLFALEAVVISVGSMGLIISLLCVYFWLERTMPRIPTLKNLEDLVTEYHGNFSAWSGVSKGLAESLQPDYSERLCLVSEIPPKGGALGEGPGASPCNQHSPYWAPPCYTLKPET

Human Treg Potency EC50 (STAT5 phosphorylation) | Human Treg Potency reduction | Binder
7.78 nM | 5560 fold | W3XX115-T3U0.E44-1.uIgG4V322 (Fc fusion) APTSSSTKKTQLQLEHLLLDLQMILNGINNYKNPKLTRMLTAKFAMPKKATELKHLQCLEEELKPLEEVLNGAQSKNFHLRPRDLISNINVIVLELKGSETTFMCEYADETATIVEFLNRWITFCQSIISTLTESKYGPPCPPCPAPEAAGGPSVFLFPPKPKDTLMISRTPEVTCVVVDVSQEDPEVQFNWYVDGVEVHNAKTKPREEQFNSTYRVVSVLTVLHQDWLNGKEYKCKVSNKGLPSSIEKTISKAKGQPREPQVYTLPPCQEEMTKNQVSLWCLVKGFYPSDIAVEWESNGQPENNYKTTPPVLDSDGSFFLYSRLTVDKSRWQEGNVFSCSVMHEALHNHYTQKSLSLSLG heavy: EIQLQQSGPELVKPGASVKVSCKASGYSFTDYNMYWVKQSHGESLEWIGYIDPYNGGTRYNQKFKGKATLTVDKSSSTAFMHLNSLTSEDSAVYYCARNGHWDGAWFAYWGQGTLVTVSAASTKGPSVFPLAPCSRSTSESTAALGCLVKDYFPEPVTVSWNSGALTSGVHTFPAVLQSSGLYSLSSVVTVPSSSLGTKTYTCNVDHKPSNTKVDKRVESKYGPPCPPCPAPEAAGGPSVFLFPPKPKDTLMISRTPEVTCVVVDVSQEDPEVQFNWYVDGVEVHNAKTKPREEQFNSTYRVVSVLTVLHQDWLNGKEYKCKVSNKGLPSSIEKTISKAKGQPREPQVCTLPPSQEEMTKNQVSLSCAVKGFYPSDIAVEWESNGQPENNYKTTPPVLDSDGSFFLVSRLTVDKSRWQEGNVFSCSVMHEALHNHYTQKSLSLSLG light: DIQMNQSPSSLSASLGDTITITCHASQNINVWLSWYQQKPGNIPKLLIYKASNLHTGVPSRFSGSRSGTGFTLTISSLQPEDIATYYCHQGQSYPFTFGSGTKLEIKRTVAAPSVFIFPPSDEQLKSGTASVVCLLNNFYPREAKVQWKVDNALQSGNSQESVTEQDSKDSTYSLSSTLTLSKADYEKHKVYACEVTHQGLSSPVTKSFNRGEC
48.8 nM | 34900 fold | W3XX115-T2U0.E44-31.uIgG4V322 (Fc fusion) APTSSSTKKTQLQLEHLLLDLQMILNGINNYKNPKLTRMLTVKFYMPKKATELKHLQCLEEELKPLEEVLNLAQSKNFHLRPRDLISNINVIVLELKGSETTFMCEYADETATIVEFLNRWITFCQSILESKYGPPCPPCPAPEAAGGPSVFLFPPKPKDTLMISRTPEVTCVVVDVSQEDPEVQFNWYVDGVEVHNAKTKPREEQFNSTYRVVSVLTVLHQDWLNGKEYKCKVSNKGLPSSIEKTISKAKGQPREPQVYTLPPCQEEMTKNQVSLWCLVKGFYPSDIAVEWESNGQPENNYKTTPPVLDSDGSFFLYSRLTVDKSRWQEGNVFSCSVMHEALHNHYTQKSLSLSLG heavy: EIQLQQSGPELVKPGASVKVSCKASGYSFTDYNMYWVKQSHGESLEWIGYIDPYNGGTRYNQKFKGKATLTVDKSSSTAFMHLNSLTSEDSAVYYCARNGHWDGAWFAYWGQGTLVTVSAASTKGPSVFPLAPCSRSTSESTAALGCLVKDYFPEPVTVSWNSGALTSGVHTFPAVLQSSGLYSLSSVVTVPSSSLGTKTYTCNVDHKPSNTKVDKRVESKYGPPCPPCPAPEAAGGPSVFLFPPKPKDTLMISRTPEVTCVVVDVSQEDPEVQFNWYVDGVEVHNAKTKPREEQFNSTYRVVSVLTVLHQDWLNGKEYKCKVSNKGLPSSIEKTISKAKGQPREPQVCTLPPSQEEMTKNQVSLSCAVKGFYPSDIAVEWESNGQPENNYKTTPPVLDSDGSFFLVSRLTVDKSRWQEGNVFSCSVMHEALHNHYTQKSLSLSLG light: DIQMNQSPSSLSASLGDTITITCHASQNINVWLSWYQQKPGNIPKLLIYKASNLHTGVPSRFSGSRSGTGFTLTISSLQPEDIATYYCHQGQSYPFTFGSGTKLEIKRTVAAPSVFIFPPSDEQLKSGTASVVCLLNNFYPREAKVQWKVDNALQSGNSQESVTEQDSKDSTYSLSSTLTLSKADYEKHKVYACEVTHQGLSSPVTKSFNRGEC
40.9 nM | 29200 fold | W3XX115-T2U0.E44-32.uIgG4V322 (Fc fusion) APTSSSTKKTQLQLEHLLLDLQMILNGINNYKNPKLTRMLTIKFYMPKKATELKHLQCLEEELKPLEEVLNLAQSKNFHLRPRDLISNINVIVLELKGSETTFMCEYADETATIVEFLNRWITFCQSILESKYGPPCPPCPAPEAAGGPSVFLFPPKPKDTLMISRTPEVTCVVVDVSQEDPEVQFNWYVDGVEVHNAKTKPREEQFNSTYRVVSVLTVLHQDWLNGKEYKCKVSNKGLPSSIEKTISKAKGQPREPQVYTLPPCQEEMTKNQVSLWCLVKGFYPSDIAVEWESNGQPENNYKTTPPVLDSDGSFFLYSRLTVDKSRWQEGNVFSCSVMHEALHNHYTQKSLSLSLG heavy: EIQLQQSGPELVKPGASVKVSCKASGYSFTDYNMYWVKQSHGESLEWIGYIDPYNGGTRYNQKFKGKATLTVDKSSSTAFMHLNSLTSEDSAVYYCARNGHWDGAWFAYWGQGTLVTVSAASTKGPSVFPLAPCSRSTSESTAALGCLVKDYFPEPVTVSWNSGALTSGVHTFPAVLQSSGLYSLSSVVTVPSSSLGTKTYTCNVDHKPSNTKVDKRVESKYGPPCPPCPAPEAAGGPSVFLFPPKPKDTLMISRTPEVTCVVVDVSQEDPEVQFNWYVDGVEVHNAKTKPREEQFNSTYRVVSVLTVLHQDWLNGKEYKCKVSNKGLPSSIEKTISKAKGQPREPQVCTLPPSQEEMTKNQVSLSCAVKGFYPSDIAVEWESNGQPENNYKTTPPVLDSDGSFFLVSRLTVDKSRWQEGNVFSCSVMHEALHNHYTQKSLSLSLG light: DIQMNQSPSSLSASLGDTITITCHASQNINVWLSWYQQKPGNIPKLLIYKASNLHTGVPSRFSGSRSGTGFTLTISSLQPEDIATYYCHQGQSYPFTFGSGTKLEIKRTVAAPSVFIFPPSDEQLKSGTASVVCLLNNFYPREAKVQWKVDNALQSGNSQESVTEQDSKDSTYSLSSTLTLSKADYEKHKVYACEVTHQGLSSPVTKSFNRGEC
